To fix the notation:
B3: MED24 (natural protein, Mus musculus (endogenous in CH12 cells), UniProt Q99K74 1-987, looked up)
chain: MKVVNLKQAILQAWKERWSDYQWAINMKKFFPKGATWDILNLAEALLEQAMIGPSPNPLILSYLKYAISSQMVSCSSVLTAISKFDDFSRDLCVQALLDIMDMFCDRLSCHGKAEECIGLCRALLSALHWLLRCTAASAERLQEGLEAGTPAPGEKQLALCLQCLEKTLSSTKNRALLHIAKLEEASSWTAIEHSLLKLGEILANLSNPQLRSQAERCGTLIRSIPSMLSVHSEQLHKTGFPTIHALILLEGTMNLTGEMQPLVEQLMMVKRMQHIPTPLFVLEIWKACFVGLIESPEGTQELKWTAFTYLKIPQVLVKLKKYFHGEKDFTEDVNCAFEFLLKLTPLLDKADQRCNCDCTNFLLQECNKQGLLSEVNFASLVGKRTADRDPQLKSSENANIQPNPGLILRAEPTVTNILKTMDADHSKSPEGLLGVLGHMLSGKSLDLLLAAAAATGKLKSFARKFINLNEFTTHGSGESTKTASVRALLFDISFLMLCHVAQTYGSEVILSESSSGEEVPFFETWMQTCMPEEGKILNPDHPCFRPDSTKVESLVALLNNSSEMKLVQMKWHEACLSISAAILEILNAWENGVLAFESIQKITDNIKGKVCSLAVCAVAWLVAHVRMLGLDEREKSLQMIRQLAGPLYSENTLQFYNERVVIMNSILEHMCADVLQQTATQIKFPSTGVDTMPYWNLLPPKRPIKEVLTDIFAKVLEKGWVDSRSIHILDTLLHMGGVYWFCNNLIKELLKETRKEHTLRAVQLLYSIFCLDMQQVTLVLLGHILPGLLTDSSKWHSLMDPPGTALAKLAVWCALSSYSSHKGQASSRQKKRHREDIEDYVSLFPVEDMQPSKLMRLLSSSDDDANILSSPTDRSMNSSLSASQLHTVNMRDPLNRVLANLFLLISSILGSRTAGPHTQFVQWFMEECVGCLEQDSRGSILQFMPFTTVSELVKVSAMSSPKVVLAITDLSLPLGRQVAAKAIAAL

Holding throughout (experiment): cryo-EM structure
In the assay “MED24” the target is B3.
The target of the next assay is T1, MED23 (Mus musculus (endogenous in CH12 cells), UniProt Q80YQ2 1-1367).
T1 sequence (looked up): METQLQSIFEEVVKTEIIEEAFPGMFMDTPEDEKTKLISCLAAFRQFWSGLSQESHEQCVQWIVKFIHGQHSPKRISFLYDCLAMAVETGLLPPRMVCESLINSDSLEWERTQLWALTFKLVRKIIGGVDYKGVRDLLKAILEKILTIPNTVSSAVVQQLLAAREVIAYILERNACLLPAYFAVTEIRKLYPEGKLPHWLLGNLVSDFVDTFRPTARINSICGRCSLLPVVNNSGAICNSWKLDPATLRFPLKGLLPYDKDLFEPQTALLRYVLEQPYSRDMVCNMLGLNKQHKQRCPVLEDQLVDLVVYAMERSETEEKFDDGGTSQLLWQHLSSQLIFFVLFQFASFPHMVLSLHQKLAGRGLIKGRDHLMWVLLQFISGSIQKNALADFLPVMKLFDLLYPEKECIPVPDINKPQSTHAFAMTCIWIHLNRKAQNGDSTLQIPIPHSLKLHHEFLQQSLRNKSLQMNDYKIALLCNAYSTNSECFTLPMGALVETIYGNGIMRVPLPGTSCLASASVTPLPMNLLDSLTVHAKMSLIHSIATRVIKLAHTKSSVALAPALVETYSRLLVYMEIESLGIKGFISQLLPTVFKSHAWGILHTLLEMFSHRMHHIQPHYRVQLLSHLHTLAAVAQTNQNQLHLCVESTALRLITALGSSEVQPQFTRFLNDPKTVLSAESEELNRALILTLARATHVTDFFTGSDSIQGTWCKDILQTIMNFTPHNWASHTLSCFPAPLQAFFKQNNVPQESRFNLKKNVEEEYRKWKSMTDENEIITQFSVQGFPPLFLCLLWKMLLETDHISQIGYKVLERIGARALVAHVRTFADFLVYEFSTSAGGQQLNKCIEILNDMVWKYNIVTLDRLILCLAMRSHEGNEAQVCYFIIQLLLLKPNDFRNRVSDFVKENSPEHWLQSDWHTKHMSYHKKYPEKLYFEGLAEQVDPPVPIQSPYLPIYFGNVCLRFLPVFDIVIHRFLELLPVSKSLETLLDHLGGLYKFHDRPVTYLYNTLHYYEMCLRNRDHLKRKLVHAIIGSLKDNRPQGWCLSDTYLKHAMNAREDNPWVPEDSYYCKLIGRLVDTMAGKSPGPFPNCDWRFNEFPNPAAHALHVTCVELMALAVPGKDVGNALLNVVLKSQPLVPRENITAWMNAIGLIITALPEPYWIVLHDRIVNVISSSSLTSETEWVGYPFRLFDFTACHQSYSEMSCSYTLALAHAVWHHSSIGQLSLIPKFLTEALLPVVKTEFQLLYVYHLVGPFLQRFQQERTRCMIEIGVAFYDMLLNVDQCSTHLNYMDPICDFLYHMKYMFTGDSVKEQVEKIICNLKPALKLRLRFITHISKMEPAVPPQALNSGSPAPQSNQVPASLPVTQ

The next assay addresses MED1 (Mus musculus (endogenous in CH12 cells), UniProt Q925J9 1-1575).
For the next assay, the target named is T2, MED17 (Mus musculus (endogenous in CH12 cells), UniProt Q8VCD5 1-649).
T2 sequence (looked up): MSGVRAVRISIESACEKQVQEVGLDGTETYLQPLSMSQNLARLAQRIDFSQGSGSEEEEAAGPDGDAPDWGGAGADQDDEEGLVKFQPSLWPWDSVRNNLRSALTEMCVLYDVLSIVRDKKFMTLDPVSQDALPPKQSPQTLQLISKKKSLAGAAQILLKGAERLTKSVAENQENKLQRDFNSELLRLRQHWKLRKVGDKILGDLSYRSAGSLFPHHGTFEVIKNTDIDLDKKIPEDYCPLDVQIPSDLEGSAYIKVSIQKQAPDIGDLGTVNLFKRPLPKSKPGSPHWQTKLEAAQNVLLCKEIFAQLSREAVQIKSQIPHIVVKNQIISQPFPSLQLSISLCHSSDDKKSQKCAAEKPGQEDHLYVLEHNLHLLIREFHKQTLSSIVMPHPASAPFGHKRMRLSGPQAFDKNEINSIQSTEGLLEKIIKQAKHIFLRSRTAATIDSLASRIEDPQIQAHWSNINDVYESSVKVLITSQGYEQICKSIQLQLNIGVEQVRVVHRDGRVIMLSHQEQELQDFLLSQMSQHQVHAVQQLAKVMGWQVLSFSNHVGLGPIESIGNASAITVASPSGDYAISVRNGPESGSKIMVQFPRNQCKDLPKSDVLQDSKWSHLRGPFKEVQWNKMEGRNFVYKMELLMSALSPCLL

A further assay concerns the target T3, MED27 (Mus musculus (endogenous in CH12 cells), UniProt Q9DB40 1-311).
T3 sequence (looked up): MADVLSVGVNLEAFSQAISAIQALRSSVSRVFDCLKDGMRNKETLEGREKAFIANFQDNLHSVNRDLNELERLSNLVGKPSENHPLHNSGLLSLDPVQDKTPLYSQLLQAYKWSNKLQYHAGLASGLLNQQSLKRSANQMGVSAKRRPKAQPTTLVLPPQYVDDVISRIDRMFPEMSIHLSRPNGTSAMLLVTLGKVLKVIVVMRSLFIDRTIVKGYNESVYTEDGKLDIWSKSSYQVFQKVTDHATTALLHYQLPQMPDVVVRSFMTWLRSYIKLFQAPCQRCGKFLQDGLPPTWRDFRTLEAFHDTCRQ

Experimental findings from doi:10.1101/2020.10.05.326918 (bioRxiv, 2020) are described below.

MED1, sequence (Q925J9 whole entry): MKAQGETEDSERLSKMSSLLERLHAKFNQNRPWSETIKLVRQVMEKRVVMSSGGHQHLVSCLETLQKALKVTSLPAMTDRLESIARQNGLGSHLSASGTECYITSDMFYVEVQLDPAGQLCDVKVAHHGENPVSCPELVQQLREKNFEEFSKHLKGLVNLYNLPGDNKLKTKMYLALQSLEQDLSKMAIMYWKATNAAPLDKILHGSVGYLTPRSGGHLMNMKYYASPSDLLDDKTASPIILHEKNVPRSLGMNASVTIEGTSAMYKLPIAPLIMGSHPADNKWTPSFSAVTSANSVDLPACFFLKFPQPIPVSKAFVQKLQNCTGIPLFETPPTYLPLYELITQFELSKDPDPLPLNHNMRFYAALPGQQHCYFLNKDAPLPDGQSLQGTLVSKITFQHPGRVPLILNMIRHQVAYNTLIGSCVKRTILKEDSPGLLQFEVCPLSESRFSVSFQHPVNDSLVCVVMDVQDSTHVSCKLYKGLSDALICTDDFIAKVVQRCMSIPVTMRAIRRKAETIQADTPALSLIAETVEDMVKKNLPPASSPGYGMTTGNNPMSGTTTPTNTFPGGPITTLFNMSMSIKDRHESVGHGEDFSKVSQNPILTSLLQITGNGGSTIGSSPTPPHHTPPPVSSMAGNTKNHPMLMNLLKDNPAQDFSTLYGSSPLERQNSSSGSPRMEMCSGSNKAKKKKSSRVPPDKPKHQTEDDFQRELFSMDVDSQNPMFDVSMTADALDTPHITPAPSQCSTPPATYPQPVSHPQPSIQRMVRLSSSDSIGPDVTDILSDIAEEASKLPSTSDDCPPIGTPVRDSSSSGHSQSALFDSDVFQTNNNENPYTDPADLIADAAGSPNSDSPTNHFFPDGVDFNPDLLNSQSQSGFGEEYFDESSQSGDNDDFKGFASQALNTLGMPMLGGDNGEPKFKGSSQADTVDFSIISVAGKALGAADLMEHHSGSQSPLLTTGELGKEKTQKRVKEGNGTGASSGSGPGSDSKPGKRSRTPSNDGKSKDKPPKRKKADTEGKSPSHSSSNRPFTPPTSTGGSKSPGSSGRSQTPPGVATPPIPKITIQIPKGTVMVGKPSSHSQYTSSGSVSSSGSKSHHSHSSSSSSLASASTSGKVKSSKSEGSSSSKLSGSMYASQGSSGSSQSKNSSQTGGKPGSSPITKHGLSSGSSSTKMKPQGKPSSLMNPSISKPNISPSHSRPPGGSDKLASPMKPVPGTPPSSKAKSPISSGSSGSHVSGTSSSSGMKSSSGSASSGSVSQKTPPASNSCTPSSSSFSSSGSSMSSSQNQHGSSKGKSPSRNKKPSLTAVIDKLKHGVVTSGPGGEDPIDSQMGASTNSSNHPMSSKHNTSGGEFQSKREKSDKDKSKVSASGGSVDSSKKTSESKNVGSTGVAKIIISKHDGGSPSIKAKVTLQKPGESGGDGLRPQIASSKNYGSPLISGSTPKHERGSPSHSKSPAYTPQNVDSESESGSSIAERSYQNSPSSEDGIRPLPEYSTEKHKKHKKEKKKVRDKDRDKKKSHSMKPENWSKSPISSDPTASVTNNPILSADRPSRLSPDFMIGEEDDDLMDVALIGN

B1: MED16 (natural protein, Mus musculus (endogenous in CH12 cells), UniProt Q6PGF3 1-828, looked up)
chain: MDLAYVCEWEKWAKSTYCPSLPLACAWSCRNLIAFTTDLRNDDQDLTHMIHILDTEHPWEVHSVSSGHSEAITCLEWDQSGSRLLSADADGQIKCWSMADHLANSWESSVGSQVEGDPIVALSWLHNGVKLALHVEKSGASSFGEKFSRVKFSPSLTLFGGKPMEGWIAVTVSGLVTVSLLKPSGQVLTSTESLCRLRGRVALADIAFTGGGNIVVAAADGSSASPVKFYKVCVSVVSEKCRIDTEILPSLFMRCTTDPNRKDRFPAITHLKFLARDMSEQVLLCASSQTSSLVECWSLRKEGLPVNNIFQQISPVVGDKQPMILKWRILSATNDLDRVSAVALPKLPISLTNTDLKVASDTQFYPGLGLALAFQDGSVHMVHRLSLQTMAVFYSSAPRSLDEPALKRPRTTCPAVHFKAMQLSWTSLALVGIDNHGKLSMLRISPSLGHPLEPKLALQHLLFLLEYCMVTGYDWWDILLHVQPGMVQSLVERLHEEYTRQKPALQQVLSTRILAMKASLCKLSPCTVARVCDYHTKLFLMAITSTLKSLLRPHFLNTPDKSPGDRLAEICAKITDVDIDKVMINLKTEEFVLDMNTLQALQQLLQWVGDFVLYLLVSLPNQGSPLRPGHSFLRDGTSLGMLRELMVVIRIWGLLKPSCLPVYTATSDTQDSMSLLFRLLTKLWICCRDEGAASEPDEGLVDECCLLPSQLLVPNLDWLPASDGLVSRLQPKQPLRLRFGRAPTLPSSTSTLQLDGLTRAPGQPKIDHLRRLHLGAYPTEECKACTRCGCVTMLKSPNKTTAVTQWEQRWIKNCLCGGLWRRVPLSCS
Consider B1, for which the binding result in the assay with MED24 and in the assay with MED23 was “binds” throughout.

B2: MED4 (natural protein, Mus musculus (endogenous in CH12 cells), UniProt Q9CQA5 1-270, looked up)
chain: MAASSSGEKEKERMGGVSGMAGLGSTRERLLSALEDLEVLSRELIEMLAISRNQKLLQLEEENQVLELLIHRDGDFQELMKLALNQGKVHHEMQALEKEVEKRDSDIQQLQKQLKEAEQILATAVYQAKEKLKSIEKARKGAISSEEIIKYAHRISASNAVCAPLTWVPGDPRRPYPTDLEMRSGLLGQMNNPSTSGVNGHLPGDALAAGRLPDVLAPQYPWQSNDMSVNMLPPNHSSDFLLEPPGHNKENEDDVEVMSTDSSSSSSDSD
For the molecule B2, in the assay with MED1, the binding result is recorded as “binds”.
Still for that read-out and setting: in the case of B3 it was “binds”.

B4: MED20 (natural protein, Mus musculus (endogenous in CH12 cells), UniProt Q9R0X0 1-212, looked up)
chain: MGVTCVSQMPVAEGKSLQQTVELLTKKLEMLGAEKQGTFCVDCETYHTAASTLGSQGQAGKLMYVMHNSEYPLSCFALFENGPCLIADTNFDVLMVKLKGFFQSAKASKIETRGTRYQYCDFLVKVGTVTMGPSARGISVEVEYGPCVVASDCWSLLLEFLQSFLGSHAPGAPTVFGNRHDAVYGPADTMIQYMELFNKIRKQQQVPVAGIR
Regarding B4, the binding result with MED17 and in the assay with MED27 was “binds” each time.
